This experiment concerns the target Mouse synaptosomes (BoNT/A acceptor on a mouse synaptosome preparation).

Maximum percent inhibition data for one substance are collected here from patent US20090004680A1.

Consider “Active BoNT/A (botulinum neurotoxin type A) (from UniProt P0DPI0 2-1296)”, for which the maximum percent inhibition came out at 78%.
